Values joined by “and” are separate entries in the source; they are usually repeats but may differ in a detail not shown here. Identical values can stand only once. Like-named read-outs stand apart in the source and are kept apart here.
Experiments:
[1] = target: full length human APOBEC3G (human) (UniProt Q9HC16); experiment: atomic force microscopy (protein volume analysis); 80 nM A3G with 4 nM hybrid DNA; 50 mM HEPES pH 7.5, 100 mM NaCl, 5 mM MgCl2, 1 mM DTT, 37 °C 30 min; on APS-mica, tapping mode in air; stoichiometry of A3G on the DNA from volume
[2] = target: full length human APOBEC3G (human) (UniProt Q9HC16); experiment: as above; remark: listed apart in the source
[3] = target: full length human APOBEC3G (human) (UniProt Q9HC16); experiment: atomic force microscopy (protein volume analysis); 32 nM A3G with 4 nM hybrid DNA; 50 mM HEPES pH 7.5, 100 mM NaCl, 5 mM MgCl2, 1 mM DTT, 37 °C 30 min; on APS-mica, tapping mode in air; stoichiometry of A3G on the DNA from volume; fractions from areas under the Gaussians
[4] = target: full length human APOBEC3G (human) (UniProt Q9HC16); experiment: atomic force microscopy (protein volume analysis); 16 nM A3G with 4 nM hybrid DNA; 50 mM HEPES pH 7.5, 100 mM NaCl, 5 mM MgCl2, 1 mM DTT, 37 °C 30 min; on APS-mica, tapping mode in air; stoichiometry of A3G on the DNA from volume

Substance: full length human APOBEC3G (from UniProt Q9HC16 1-384) (enzyme)
- percent of A3G-DNA complexes with A3G trimers [1]: 88%
- percent of A3G-DNA complexes with higher order A3G oligomers [1]: 12%
- stoichiometry N [1]: 3
- percent of A3G-DNA complexes with A3G trimers [2]: 82%
- percent of A3G-DNA complexes with higher order A3G oligomers [2]: 18%
- stoichiometry N [2]: 6
- percent of A3G-DNA complexes with A3G dimers [3]: 78%
- percent of A3G-DNA complexes with A3G tetramers [3]: 22%
- stoichiometry N [3]: 2 and 4
- stoichiometry N [4]: 2 and 3

Reference: article PMC6298963
